Measured values published in paper PMC10398351, “Structural and molecular insight into antibody recognition of dynamic neoepitopes in membrane tethered MUC1 of pancreatic cancer cells and secreted exosomes” (RSC Chemical Biology, 2023).
Entries after “also recorded” stand apart in the source; their conditions may differ.

Key:
[1] = biological target: MUC1 bearing ST antigen at the immunodominant DTR motif; test: SPR affinity of SN-131 with MUC1 bearing ST antigen; type: binding; details: SN-131 with MUC1 bearing ST antigen at the immunodominant DTR motif; abstract
Method: The binding affinity of SN-131 Fab with MUC1 TRD models was measured by using a Biacore 2000 surface plasmon resonance (SPR) instrument (GE Healthcare). Synthetic MUC1 TRD models 2–4 with a C-terminal cysteine residue were immobilized on a CM5 chip (GE Healthcare) by a standard protocol of the maleimide coupling. The SN-131 Fab was injected over the surface of the immobilized MUC1 TRD models 2–4 and three kinetic parameters, the association rate constant (kon), the dissociation rate constant (koff), and the equilibrium dissociation constant (KD) were obtained with BIAevaluation 4.1 software (GE Healthcare) using a bivalent binding model. Isothermal titration calorimetry (ITC) experiments were also carried out to determine the thermodynamic parameters of the interaction between SN-131 and non-glycosylated-/Tn-MUC1 TRDs.7 All experiments and analyses were performed by using nano ITC (TA Instrument) and Nanoanalyze based on as independent model.

[2] = tested on: MUC1 TRD; test: Epitope mapping of SN-131 on glycopeptide microarray; type: binding; details: SN-131 1 µg/mL, 2 h at room temperature, Cy3 labeled anti-mouse IgG
Method: 100 mM solutions of the synthetic glycopeptides capped with ketone-linker at the N-terminus (5–9) dissolved in 25 mM sodium acetate buffer (pH 5.0) containing 0.005% Tween-20 (w/v) were robotically printed on plastic slides coated with a copolymer carrying aminooxy-/phosphorylcholine functional groups according to the protocol reported previously.[20,22,24] Detailed conditions for the binding assay are described in the ESI. ^† […]
as Additional Data in Supporting Information. Compounds 3 , 5, and 6 were synthesized previously5,7,8 and available for the present study.
Glycopeptide microarray. 100 mM solutions of the synthetic glycopeptides capped with ketone-linker at N -terminus (5~9) dissolved in 25 mM sodium acetate buffer (pH 5.0) containing 0.005% Tween- 20 (w/v) were robotically printed on plastic slides coated with a copolymer carrying aminooxy-/phosphorylcholine functional groups according to the protocol reported previ ousl y.5,7-9 For the epitope analysis of SN-131, antibody solutions (1 µg/mL) were added to each well of the slides. After incubation for 2 h at room temperature, the slides were rinsed and added with Cy3 labeled anti-mouse IgG polyclonal antibody (1 µg/mL). After washing, fluorescence of the wells were measured using a GlycoStation 1200 system and analysed with the ArrayVision […]
Anti-MU C1 mA b (SN -131). […]

[3] = tested on: PANC-1 cells; test: Live cell imaging of Alexa488-conjugated SN-131 on PANC-1 cells; type: cell-based, human; details: Alexa 488 conjugated SN-131 10 μg mL−1, 2 h at 37 °C
Method: PANC-1 cells (5 × 10^4 cells per well) were cultured with 10% FBS and 2 mM L-glutamine on an 8-well imaging plate (Fischer Scientific) for 48 h in 5% CO2 at 37 °C. Then, Alexa 488 conjugated SN-131 (10 μg mL^−1), 10 μM MUC1-5ST (8), or MAG (5 μg mL^−1) dissolved in Opti-MEM medium (gibco) was co-incubated with PANC-1 cells for 2 h in 5% CO2 at 37 °C. Cells were washed with Opti-MEM and stained with Hoechst 33342 (2.5 ng mL^−1 in Opti-MEM) for 30 min. […] The pictures were imaged with 60xlens and the following filter set (Blue: #OP-66843 Excitation 360/40, Emission 460/50, Green: #OP-66836, Excitation 470/40, Emission 535/50, Red: #OP-66837, Excitation 540/25, Emission […]). Imaging pictures were analysed by BZ-II Analyzer software (Keyence, Osaka).

[4] = tested on: MUC1 TRD; details: cited from earlier work
From the text: By using a robust synthetic glycopeptide library,[21–24] we have established a straightforward approach to antibodies recognizing cancer-relevant glycopeptidic epitopes modified with aberrant O-glycans, namely “dynamic neoepitopes”, found in the MUC1 TRD (Fig. 2a).[19,20] […] We considered that SN-131 is a highly potential anti-MUC1 antibody because this antibody binds specifically MUC1 TRD having core 1 type O-glycans overexpressed in many cancers including pancreatic cancer but not core 2 type O-glycans found in normal cells. However, the structural and molecular basis of the epitope recognition by SN-131 remain to be fully understood. We needed to investi ...

B1: SN-131: anti-MUC1 mAb (clone 1B2, IgG2a) binding MUC1 TRD with Tn, T and ST antigens at the DTR motif (antibody, V domains shown)
VH: QVQLQQSGAELARPGASVKLSCKASGYTFTNYGLSWVKQRTGQGLEWIGENHPGSGIIYHNEKFRGKATLTADKSSSTAYVQLSSLTSEDSAVYFCARSSGTRGFAYWGQGTLVTVSA
VL: DVLMTQTPLSLPVSLGDQASISCRSSQSIVHSNGNTYLEWYLQKPGQSPKLLIYKVSNRFSGVPDRFSGSGSGTDFTLKISRVEAEDLGVYYCFQGSHGPWTFGGGTKLEIK
[1]
  Kd: 1.58 nM
[2]
  binding of SN-131 to MUC1 TRD glycoforms (epitope mapping, in words): binds MUC1 TRD with Tn, T, and ST antigens attached to the immunodominant DTR motif; also recorded: did not bind to non-glycosylated MUC1 TRD
[3]
  binding to PANC-1 cell surface MUC1 TRD: binds strongly
[4]
  glycoform specificity of binding to MUC1 TRD: does not bind to MUC1 TRD when the threonine residue of this immunodominant region is modified with STn, dST, or core 2-type mature complex O-glycan structures
